Numbering of substitutions follows the chain as printed.
Assays:
[1] = biological target: T1, human PD-1 expressed on cells (human, UniProt Q15116 25-288); test: cell-based or functional assay
[2] = biological target: T2, recombinant human PD-1-His protein (ECD) (human, UniProt Q15116 25-170); test: SPR, drawn table; no unit in the KD column, the Affinity column gives 5.8 nM (the text prints only 5.8 nM)
T2 construct: extracellular domain; Used as ELISA coat and SPR partner; also called rhprotein; antigen; not shown: His tag
T2 sequence (Q15116 25-170): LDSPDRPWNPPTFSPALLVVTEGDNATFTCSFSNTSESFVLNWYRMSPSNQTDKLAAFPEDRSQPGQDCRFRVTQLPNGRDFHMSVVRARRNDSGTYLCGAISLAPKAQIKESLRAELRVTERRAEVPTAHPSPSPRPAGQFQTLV

[3] = biological target: T1, human PD-1 expressed on cells; test: flow cytometry on activated hCD8 T cells from human blood, 2nd-hIgG-PE detection; 2nd-hIgG-PE alone 1.73
[4] = biological target: T2, recombinant human PD-1-His protein (ECD); test: SPR
[5] = biological target: T3, mouse PD-1 antigen (mouse, UniProt Q02242 25-167, limits assumed); test: ELISA on the PD-1 antigen of the species, antibody 500 to 3.90625 ng in 1/2 steps
T3 construct: ELISA antigen
T3 sequence (looked up): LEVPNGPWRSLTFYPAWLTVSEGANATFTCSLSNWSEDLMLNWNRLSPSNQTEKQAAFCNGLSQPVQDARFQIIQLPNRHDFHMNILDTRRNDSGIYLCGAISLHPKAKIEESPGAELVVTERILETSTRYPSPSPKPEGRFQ

[6] = biological target: T2, recombinant human PD-1-His protein (ECD); test: SPR, drawn table; the column heads print no unit, units as in the table of FIG 7b
[7] = biological target: T2, recombinant human PD-1-His protein (ECD); test: ELISA on coated recombinant human PD-1-His protein
Protocol: For ELISA, the recombinant human PD-1-His protein was O/N coated on a 96-well ELISA plate at 4° C., and blocked with 5% non-fat skim milk at RT for 1 hr. The antibody was treated with ½ serial dilution of each hybridoma culture medium from 100 ul at RT for 2 hr, and detected by anti-mIgG-HRP.
(§1) In addition, each purified humanized antibody was bound to 293 cells expressing human PD-1 and analyzed by flow cytometry.

[8] = biological target: T1, human PD-1 expressed on cells; test: flow cytometry on hPD-1/293 cells, 2nd-hIgG-PE detection; Ctl 2nd-hIgG 0.17, cell only 0.03
Excerpt: as §1

[9] = biological target: T2, recombinant human PD-1-His protein (ECD); test: SPR; number in the sensorgram panel without name or unit, taken as KD in M because 9.655e-9 stands for 9.7 nM in FIG 9d
[10] = biological target: T2, recombinant human PD-1-His protein (ECD); test: Q-ELISA of purified antibody on recombinant human PD-1-His, drawn table
Protocol: For ELISA, the recombinant human PD-1-His protein was O/N coated on a 96-well ELISA plate at 4° C., and blocked with 5% non-fat skim milk at RT for 1 hr. […]

[11] = biological target: T2, recombinant human PD-1-His protein (ECD); test: SPR, purified antibody, PD-1 antigen
[12] = biological target: T1, human PD-1 expressed on cells; test: flow cytometry on cells overexpressing hPD-1
[13] = biological target: T2, recombinant human PD-1-His protein (ECD); test: SPR, drawn table; no unit in the KD column, the Affinity column gives 9.7 nM (the text prints only 9.7 nM)

T1 sequence (Q15116 25-288): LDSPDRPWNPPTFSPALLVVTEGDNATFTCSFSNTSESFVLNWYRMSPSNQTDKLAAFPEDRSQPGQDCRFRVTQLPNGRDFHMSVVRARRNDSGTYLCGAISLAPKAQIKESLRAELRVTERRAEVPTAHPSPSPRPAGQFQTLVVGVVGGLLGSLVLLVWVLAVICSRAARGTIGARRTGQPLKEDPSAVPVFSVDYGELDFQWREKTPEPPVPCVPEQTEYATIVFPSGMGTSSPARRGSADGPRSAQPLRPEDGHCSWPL

B1: 2B3W-T14-05 (antibody, human IgG4, V domains shown)
VH: EVQLVESGGGLVQPGGSLRLSCAASGFVFSNYDMSWVRQAPGKGLEWVAYITIGGGTTYYPDTVKGRFTISRDNAKNSLYLQMNSLRAEDTAVYYCARWRYDPLFAMDYWGQGTTVTVSS
VL: DIVLTQTPLSLSVTPGQPASISCRASESVTDYGISFMNWFLQKPGQPPQLLIYAASNQGSGVPDRFSGSGSGTDFTLKISRVEAEDVGVYYCQQSKEVPWTFGQGTKVEIK
notes: also called EU135-T14.05
EC50 (read off the curve); PD-1/PD-L1 Blockade Bioassay, luciferase RAU [1]: ~0.8 µg/mL
Kd [2]: 5.79 nM
percent of cells in the positive quadrant [3]: 17%
Kd [4]: 5.8 nM
binding result [5]: no binding (tested: 500 ng)
koff [6]: 0.000508 s⁻¹
kon [6]: 87800 M⁻¹ s⁻¹

B2: humanized antibody 2B3R (antibody, V domains shown)
VH: B1 VH with W99R, R100V, F105Y
VL: B1 VL with T30D, D31N
notes: Humanized antibody
binding result [7]: no binding

B3: humanized antibody 7C5 (antibody, V domains shown)
VH: EVQLVESGGGLVKPGGSLRLSCAASGFTFSSFGMSWVRQAPGKGLELVATIYSNGDYTYYPDSVKGRFTVSRDNAKNSLYLQMNSLRAEDTAVYYCARYYGNYGGYFDYWGQGTLVTVSS
VL: AIQMTQSPSSLSASVGDRVTITCKASQSVSNDVAWYQQKPGKAPKLLIYYASNRYTGVPSRFSGSGSGTDFTLTISSLQPEDFATYYCQQDYSSPPTFGGGTKVEIK
notes: Humanized antibody
percent of cells in the positive quadrant [8]: 95.3%
Kd [9]: 211 nM
percent of cells in the positive quadrant [3]: 6.39%
OD=405, row 1 of 8 (1/2 serial dilution from 500ng) [10]: 3.42
OD=405, row 2 of 8 (1/2 serial dilution from 500ng) [10]: 3.39
OD=405, row 3 of 8 (1/2 serial dilution from 500ng) [10]: 3.42
OD=405, row 4 of 8 (1/2 serial dilution from 500ng) [10]: 3.34
OD=405, row 5 of 8 (1/2 serial dilution from 500ng) [10]: 3.22
OD=405, row 6 of 8 (1/2 serial dilution from 500ng) [10]: 2.74
OD=405, row 7 of 8 (1/2 serial dilution from 500ng) [10]: 1.96
OD=405, row 8 of 8 (1/2 serial dilution from 500ng) [10]: 1.16
Kd [11]: 57.2 nM
koff [11]: 0.00492 s⁻¹
kon [11]: 86000 M⁻¹ s⁻¹
percent of cells in the positive quadrant [12]: 96.4%

B4: 7C5-T15-01 (antibody, human IgG4, V domains shown)
VH: B3 VH
VL: B3 VL with S30W, N31D, V33L, A34T
EC50 (read off the curve); PD-1/PD-L1 Blockade Bioassay, luciferase RAU [1]: ~0.7 µg/mL
Kd [13]: 9.65 nM
percent of cells in the positive quadrant [3]: 20.3%
Kd [4]: 9.7 nM
binding result [5]: no binding (tested: 500 ng)
percent of cells in the positive quadrant [12]: 97.3%
koff [6]: 0.000632 s⁻¹
kon [6]: 65500 M⁻¹ s⁻¹
